Results published in paper PMC6508887.

B1: MmOGOR (Magnetococcus marinus MC-1) (protein)
chain 1: MEKKDLIIRVAGEGGEGIISSGDFIAAACARAGLEVYTFKTFPAEIKGGYAMYQVRASSEKLYCQGDTFDVFCAFNGEAYEQNKDKIKPGTAFVYDYPGGDFEPDEIPEGVFAYPIPMSQTAKEMKSYRSKNMVALGALSELFNISENTLKEVLSDKFGKKGEEVLAFNLEAFDKGKALAKALTKADPFRVADPQEPKDVIIMAGNDAVGLGGILGGLEFFSAYPITPATEVAKYVATHLPKCGGDLVQAEDEIASIAQVLGASYAGKKSMTATSGPGLALMSEMLGMAHMSETPCLVVDVQRGGPSTGLPTKHEQSDLFLAIHGGHGDSPRIVLSVEDVKDCISMTVDGLNLAEKYQAPVIVLSDGSLAFSTQTIPRPKPEDFTIINRKTWDGQGTYKRYELTEDNISPMAAPGTPNAKHIATGLEHGETGAPNYSPANHELMHRKRFNKQNSVLDFYKNMEVEGVEGEADVGIITWGSTIGVVREAMQRLTAEGLKVKAMYPKLLWPMPVADYDAFGATCKKVIVPEVNFQGQLSHFIRAETSIKPIPYTICGGLPFTPEMIVNRVKEEIQ
chain 2: MTVEAFHKMENMKPKDYKSEVPTTWCPGCGHFGILNGVYRAMAELGIDSTKFAAISGIGCSSRMPYFVDSYKMHTLHGRAGAVATGTQVARPDLCVVVAGGDGDGFSIGGGHMPHMARKNVNMTYVLMDNGIYGLTKGQYSPTSRPEMTAYTTPYGGPENPMNPLLYMLTYGATYVAQAFAGKPKDCAELIKGAMEHEGFAYVNIFSQCPTFNKIDTVDFYRDLVEPIPEDHDTSDLGAAMELARRPGGKAPTGLLYKTSAPTLDQNLAKIRERLGGHVGYDKNKIIALAKP

What was measured:
[1] = molecular target: 2-oxoglutarate:ferredoxin oxidoreductase from Magnetococcus marinus MC-1, αβ heterodimer (catalytic unit) (Magnetococcus marinus MC-1)
[2] = substrate: CC(C)(COP(=O)(O)OP(=O)(O)OC[C@H]1O[C@@H](n2cnc3c(N)ncnc32)[C@H](O)[C@@H]1OP(=O)(O)O)[C@@H](O)C(=O)NCCC(=O)NCCS; test: steady-state 2-oxoglutarate oxidation assay; type: biochemical, Magnetococcus marinus; conditions: pH 8.5, 2-oxoglutarate oxidation direction
[3] = substrate: O=C(O)CCC(=O)C(=O)O; test: steady-state 2-oxoglutarate oxidation assay; type: biochemical, Magnetococcus marinus; conditions: pH 8.5, apparent KM

KM of WT MmOGOR for MmFd1, CO2 reduction, pH 7.0 [1]	Molecule	Km [2]	kcat [2]	kcat/Km [2]	Km [3]	kcat [3]	kcat/Km [3]
1.3 μM	Magnetococcus marinus MC-1 ferredoxin 1 (natural protein)	–	–	–	–	–	–
–	B1	6.8 µM	24.7 s⁻¹	3.6e+06 M⁻¹ s⁻¹	4400 µM	30.3 s⁻¹	6900 M⁻¹ s⁻¹
